We go through one substance from article PMC7189753.

The target in this assay is ChuX. Description: AUC.

ChuX (natural protein): the percent of the sample as dimer (2.9 S species) worked out at 81.3% and the percent of the sample as tetramer (4.5 S species) came to 10.8%.
